Reference: the supplement of paper PMC7125110
± gives the standard error. This sample holds only a part of the variants without activity.

B1: glmS ribozyme (parent)
chain: AUAAAAGCGCCAGAACUACAGAAAUGUAGUUGACGAGGAGGAGGUUUAUCGAAUUUUCGGCGGAUGCCUCCAAA

What was measured:
Settings in all cases: with glucosamine-6-phosphate
glucosamine-6-phosphate [1] = variants of: B1; test: self-cleavage kobs at 640 uM GlcN6P; higher = faster cleavage; RNA array
Outline: (§1)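 Barcoded ribozyme variants on sequenced MiSeq chips were transcribed in situ by E. coli RNA polymerase and followed at 37 °C through a hybridised Cy3 probe. Glucosamine-6-phosphate at 40 μM to 10 mM in HEPES/KCl/Mg(OAc)2 buffer was flowed in, and tiles were imaged over ~14 h. Signals were normalised to baseline and to non-cleaving reference variants, and per-tile medians were fit to one- or two-exponential decays to give kobs. Weighted Michaelis–Menten fits across concentrations gave kcat and KM.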

glucosamine-6-phosphate [2] = variants of: B1; test: self-cleavage kobs at 2500 uM GlcN6P; higher = faster cleavage; RNA array
Outline: as §1

glucosamine-6-phosphate [3] = variants of: B1; test: self-cleavage kobs at 10000 uM GlcN6P; higher = faster cleavage; RNA array
Outline: as §1

| Variant | self-cleavage kobs at 640 uM GlcN6P (glucosamine-6-phosphate [1]) | self-cleavage kobs at 2500 uM GlcN6P (glucosamine-6-phosphate [2]) | self-cleavage kobs at 10000 uM GlcN6P (glucosamine-6-phosphate [3]) |
| --- | --- | --- | --- |
| AUAAAAGCGCCAGAACUACAGAAAUGUAGUUGACGUGGAGGAGGUUUAUCGAAUCUUCGUCGGAUGCCUCCAAA [A36U U55C G60U] | < 1e-05 s⁻¹ | – | – |
| AUAAAAUCGCCAGAACUACAGAAAUGUAGUUGACGAGGAGGAGGUUUAUCGAAUUUUCGGGGGAUGACUCCAAA [G7U C61G C67A] | 0.000105 ± 4.6e-05 s⁻¹ | 0.00214 ± 0.00087 s⁻¹ | – |
| AUAAAAGCGCCAGAACUACAGAAAUGUAGUUGACGAGGAUGAGGUUUAUAAAAUUUUCGGCGGAUGCCUCCAAA [G40U C50A G51A] | < 1e-05 s⁻¹ | – | – |
| AUAAAAGCGCCAGAUCUACAGAAAUGUAGUUGACAAGGAGGAGGUUUAUCGAAUUUUCGGCGGAUGCUUCCAAA [A15U G35A C68U] | < 1e-05 s⁻¹ | < 1e-05 s⁻¹ | – |
| AUAAAAGCGCCAGUAAUACAGAAAUGUAGUUGACCAGGAGGACGUUUAUCGACUUUUCGGUGGAUGCCUCCAAA [A14U C16A G35C G43C A53C C61U] | < 1e-05 s⁻¹ | < 1e-05 s⁻¹ | – |
| AUAAAAGCGCCAGAACUAAAGAAAUGUAGAUGACGAGGAGGAGGUUUAUCGAAUUUUCGGCGGAUGCCUCCAAA [C19A U30A] | 0.000125 ± 2.9e-05 s⁻¹ | 0.000235 ± 4.3e-05 s⁻¹ | – |
| AUAAAAGCGCCAGAGAUACAGAAAUGUAGUUGACGAGGAGGAGGUUUAUCGAAUUUUAGGCGGUUGCCUUCAAA [A15G C16A C58A A64U C70U] | 8e-05 ± 1.9e-05 s⁻¹ | – | – |
| AUAAAAGCGCCAGUACUACAGAAAUGUAGGUGACGAGGAAGAGGUUUAUCGAAUUUUCGGCGGAUGCCUCCAAA [A14U U30G G40A] | 0.000126 ± 3.6e-05 s⁻¹ | 0.000424 ± 0.00014 s⁻¹ | – |
| AUAAAAGCGCCAGAACUACAGAAAUGUAGUUGUCGAGGAGAAGAUUUAUCGAAUUUUCGGCGGUUGCCUCCAAA [A33U G41A G44A A64U] | < 1e-05 s⁻¹ | < 1e-05 s⁻¹ | < 1e-05 s⁻¹ |
| AUAAAAGCGCCAGCAUUACAGAAAUGUAGUUGACGAGGAGGAGUUUUAUCGAAUUUUCGGCGGAUGCCGCCAAA [A14C C16U G44U U69G] | < 1e-05 s⁻¹ | – | – |
| AUAAAAGCGCCAGAACUACAGAAAUGUAGUUGACGAGGAGGAGAUUGAUCGAAUUUUCGGCGGAUGCCUCCAAA [G44A U47G] | 5.51e-05 ± 2.3e-05 s⁻¹ | 0.00011 ± 3.2e-05 s⁻¹ | 0.000111 ± 2.2e-05 s⁻¹ |
| AUAAAAACGCUAGAACUACAGAAAUGUAGUUGACGAGGAGGAGGUUUAUCGUAUUUUAGGCUGAUGCCUCCAAA [G7A C11U A52U C58A G62U] | < 1e-05 s⁻¹ | – | – |
| AUAAAAGCGCCAGAAGUACAGAAAUGUAGUUGACGAGGAGGAGGCUUAUCGAAAUUUCGGCGGAUGCCUUCAAA [C16G U45C U54A C70U] | 6.18e-05 ± 2.7e-05 s⁻¹ | – | – |
| ACAAAAGCGCCAGAACUACAGAAAUGUAGUUUACGAGGAGGAGAUUGAUCGAAUUUUCGGCGGAUGCCUCCAAA [U2C G32U G44A U47G] | < 1e-05 s⁻¹ | < 1e-05 s⁻¹ | – |
| AUAAACGCGCCAGAACUACAGAAAUGUAGUCGACGAGGAGGAGGUUUAUCGAAUUUUCGGCAGAUGCCUCCAAA [A6C U31C G62A] | < 1e-05 s⁻¹ | – | – |
| AUAAAAGCGCCAGAACUACAGAAAUGUAGUUGACGAGGAGGGGGUUUAUCGAAUGUUCGGCGGGUGCCUCGAAA [A42G U55G A64G C71G] | 0.000116 ± 3.7e-05 s⁻¹ | 5.98e-05 ± 2e-05 s⁻¹ | – |
| AUAAAAGAGCCAGAACUACAGAAAUGUAGUGGACGAGGAGGAGGUUUAUCGAAUUUUCGGAGGAUGCCUCCAAA [C8A U31G C61A] | < 1e-05 s⁻¹ | – | < 1e-05 s⁻¹ |
| AUAAAAGCGCCGGAACUACAGAAAUGUAGUUGACGUGGAGGAGGUUUAUCGAAUUUUCGGCGGAUGCCUCCAAA [A12G A36U] | < 1e-05 s⁻¹ | – | – |
| AUAAAAGCGACAGAACUACAGAAAUGUAGUUGACGAGGAGGAGGUUUAUCGAAUUUUCGGCGAAUGCCACUAAA [C10A G63A U69A C71U] | 0.000215 ± 6.3e-05 s⁻¹ | – | – |
| AUAAAAGCGCCAGAACUACAGAAAUGUAGUUGAGGAGGAGGCGGUUUAUCGUAUUUUUGGCGGAGGCCUCCAAA [C34G A42C A52U C58U U65G] | < 1e-05 s⁻¹ | < 1e-05 s⁻¹ | – |
| AUAAAAGCCCCAGAACUACAGAAAUGUAGUUGACGAGGAGGAGGUUUAUCGAAUUUUCGGCGGAUGCCUGCAAA [G9C C70G] | < 1e-05 s⁻¹ | – | < 1e-05 s⁻¹ |
| AUAAAAGCGCCAGAACUACAGAAAUGUAGUUGACGAGGAGGACAUUUAUCGAAUUUUCGGCGGAUGCAUCCAAA [G43C G44A C68A] | < 1e-05 s⁻¹ | < 1e-05 s⁻¹ | – |
